System: U937 (CLL1+) cells
Experiment: Cytotoxicity assay, sCAR-T cells + anti-CLL1 switches
Type: cell-based
Details: with short-dimeric CAR
Excerpt: FIG. 38A illustrates multiple fusion/grafting locations: A=LCNT1 (light chain N terminus version 1), B=HCNT3 (heavy chain N terminus version 3), C=heavy chain C terminus, and D=light chain C terminus). […] Data shown are an average of duplicate samples, and error bars represent SD. Only the NT switches plus the BvCT and By CH1CL1 as references are depicted.
By utilizing the “universal” anti-peptide sCART cell, multiple switches targeting multiple cancer associated antigens can be rapidly developed. An example of this is the generation of peptide engrafted switches against the AML associated antigen CLL1. A series of 6 plasmids were designed into which commercially synthesized gene-blocks encoding scFv sequences were inserted by gibson phase assembly to generate: Light chain wild type, light chain N-terminal, light chain C-terminal, heavy chain wild type, heavy chain N-terminal and heavy chain C-terminal plasmid constructs. […]
Another example (see Example 7) of switch SAR was shown with the anti-CLL1 switch derived from the anti-CLL1 antibody clone. […] Using these switches in combination with the three different CAR constructs (long, short and short dimeric) in cytotoxicity assays with the CLL1^+U937 cell line it was determined that N-terminal bivalent switches with the short-dimeric CAR was the most optimal for immunological synapse for the in vitro killing of U937 cells (FIG. 38D). […]

B1: anti-CLL1 switch A + B: anti-CLL1 Fab switch, N-terminal bivalent (LCNT & HCNT; SEQ ID 102 & 103) (antibody)
heavy: NYHLENEVARLKKLLVGEAAAKEAAAKADIQLQESGPGLVKPSQSLSLTCSVTGYSITSAYYWNWIRQFPGNKLEWMGYISYDGRNNYNPSLKNRISITRDTSKNQFFLKLNSVTTEDTATYYCAKEGDYDVGNYYAMDYWGQGTSVTVSSARTKGPSVFPLAPSSKSTSGGTAALGCLVKDYFPEPVTVSWNSGALTSGVHTFPAVLQSSGLYSLSSVVTVPSSSLGTQTYICNVNHKPSNTKVDKKVEPKSC
light: NYHLENEVARLKKLGGGGSENVLTQSPAIMSASPGEKVTMTCRASSNVISSYVHWYQQRSGASPKLWIYSTSNLASGVPARFSGSGSGTSYSLTISSVEAEDAATYYCQQYSGYPLTFGAGTKLELKRAAAAPSVFIFPPSDEQLKSGTASVVCLLNNFYPREAKVQWKVDNALQSGNSQESVTEQDSKDSTYSLSSTLTLSKADYEKHKVYACEVTHQGLSSPVTKSFNRGEC
modifications: peptide on N-termini; Made in lab - CLL1(1075.7)-HC_NT3 switch antibody polynucleotide; Made in lab - CLL1(1075.7)-LC_NT1 switch antibody polynucleotide
  immunological synapse for in vitro killing: most optimal

Reference: patent publication US11091546B2, “Optimized PNE-based chimeric receptor T cell switches and uses thereof” (The Scripps Research Institute, priority 2015, dated 2021)
